Target: T1, synthetic LEAP2 peptide (mature peptide of human LEAP2) (human)
T1 peptide: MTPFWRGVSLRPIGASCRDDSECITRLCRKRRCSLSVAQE
Experiment: cell-based or functional assay

B1: anti-LEAP2 monoclonal antibody M18 (antibody, V domains shown)
VH: EIQLQQSGPELMKPGASVKISCKASGYSFTNYYIHWVKQSHGKSLEWIGYIDPFNGGTNYNQKFKGKATLTVDKSSSTAYMHLSSLTFEDSAVYYCARRGYYYGFTYWGQGTLVTVSA
VL: DIVLTQSPASLAVSLGQRATISCKASQSVDYDGDSYMNWYQQKPGQPPKLLIYTASNLESGIPARFSGSGSGTDFTLNIHPVEEEDAATYYCQQSNEDPYTFGGGTKLEIK
EC50 of blocking LEAP2 inhibition of GHSR activity (antibody mixed with LEAP2, antagonist format, GHSR-stable cell line): 680 nM

B2: anti-LEAP2 monoclonal antibody M1/M2 (antibody, V domains shown)
VH: EVQLQQSGTVLARPGASVKMSCKASGYTFTSYWMHWVKQRPGQGLEWIGAIYPGNSDTSYKQKFKGKAKLTAVTSASTVYMELSSLTDEDSAVYYCTYGKEEYLFAMDYWGQGTSVTVSS
VL: not shown
EC50 of blocking LEAP2 inhibition of GHSR activity (antibody mixed with LEAP2, antagonist format, GHSR-stable cell line): 170 nM

— patent US20210101973A1 (NGM BIOPHARMACEUTICALS, published 2021)
